Article PMC7954794, “Protein context shapes the specificity of SH3 domain-mediated interactions in vivo” (Nature Communications, 2021)

Experiments:
Format in all cases: cell-based, Saccharomyces cerevisiae
Hua2 = experiment: Deep mutational scanning of Abp1 SH3, Abp1-Hua2 DHFR-PCA (DMS score); settings: for hua2sc (frequencies scaled to the synonymous mutation distribution, DMS score) / HUA2_MTX2 (frequencies normalized to the reference condition): Abp1-Hua2 DHFR-PCA; for HUA2_MTX2 (frequencies normalized to the reference condition): MTX2; for hua2sc (DMS score): Frequencies scaled to the synonymous mutation distribution (DMS score), Hua2; for HUA2_MTX2: frequencies normalized to the reference condition, Abp1-Hua2, MTX2
How it was run: (§1)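 Yeast carrying single-codon Abp1 SH3 variants at the endogenous locus, each paired with a Hua2 or Lsb3 DHFR-fragment partner; binding scored by growth over two successive 72 h PCA selections at 30 °C. Illumina counts before and after selection give the DMS score; independent duplicates.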

Lsb3 = experiment: Deep mutational scanning of Abp1 SH3, Abp1-Lsb3 DHFR-PCA (DMS score); settings: for lsb3sc (frequencies scaled to the synonymous mutation distribution, DMS score) / LSB3_MTX2 (frequencies normalized to the reference condition): Abp1-Lsb3 DHFR-PCA; for LSB3_MTX2 (frequencies normalized to the reference condition): MTX2; for lsb3sc (DMS score): Frequencies scaled to the synonymous mutation distribution (DMS score), Lsb3; for LSB3_MTX2: frequencies normalized to the reference condition, Abp1-Lsb3, MTX2
How it was run: as §1

[1] = system: Hua2 and Lsb3 (Abp1-Hua2 and Abp1-Lsb3 PPIs); experiment: Deep mutational scanning of Abp1 SH3, quadrant classification from Hua2 and Lsb3 DMS scores; settings: class from DMS scores for Hua2 and Lsb3
Hua2 and Lsb3 = experiment: Quadrant classification of Abp1 SH3 variants from DMS scores (Abp1-Hua2 and Abp1-Lsb3 DHFR-PCA); settings: class by effect on Hua2 and Lsb3 PPIs (Dest. both / Dest. Hua2 / Dest. Lsb3 / Neutral)

Molecule	hua2sc (frequencies scaled to the synonymous mutation distribution, DMS score) (Hua2)	HUA2_MTX2 (frequencies normalized to the reference condition) (Hua2)	lsb3sc (frequencies scaled to the synonymous mutation distribution, DMS score) (Lsb3)	LSB3_MTX2 (frequencies normalized to the reference condition) (Lsb3)	quadrant [1]	quadrant (Hua2 and Lsb3)	hua2sc (DMS score) (Hua2)	HUA2_MTX2 (Hua2)	lsb3sc (DMS score) (Lsb3)	LSB3_MTX2 (Lsb3)
ABP1 V54V (protein, UniProt P15891 2-592, looked up, synonymous V54V) Actin-binding protein: ALEPIDYTTHSREIDAEYLKIVRGSDPDTTWLIISPNAKKEYEPESTGSSFHDFLQLFDETKVQYGLARVSPPGSDVEKIIIIGWCPDSAPLKTRASFAANFAAVANNLFKGYHVQVTARDEDDLDENELLMKISNAAGARYSIQTSSKQQGKASTPPVKKSFTPSKSPAPVSKKEPVKTPSPAPAAKISSRVNDNNDDDDWNEPELKERDFDQAPLKPNQSSYKPIGKIDLQKVIAEEKAKEDPRLVQKPTAAGSKIDPSSDIANLKNESKLKRDSEFNSFLGTTKPPSMTESSLKNDDDKVIKGFRNEKSPAQLWAERKAKQNSGNAETKAEAPKPEVPEDEPEGEPDVKDLKSKFEGLAASEKEEEEMENKFAPPPKKSEPTIISPKPFSKPQEPVKAEEAEQPKTDYKKIGNPLPGMHIEADNEEEPEENDDDWDDDEDEAAQPPLPSRNVASGAPVQKEEPEQEEIAPSLPSRNSIPAPKQEEAPEQAPEEEIEEEAEEAAPQLPSRSSAAPPPPPRRATPEKKPKENPWATAEYDYDAAEDNELTFVENDKIINIEFVDDDWWLGELEKDGSKGLFPSNYVSLGN	-0.1199	1.4929	-0.8004	0.6999	Neutral	–	–	–	–	–
ABP1 N58N (protein, UniProt P15891 2-592, looked up, synonymous codon change N58N) Actin-binding protein: ALEPIDYTTHSREIDAEYLKIVRGSDPDTTWLIISPNAKKEYEPESTGSSFHDFLQLFDETKVQYGLARVSPPGSDVEKIIIIGWCPDSAPLKTRASFAANFAAVANNLFKGYHVQVTARDEDDLDENELLMKISNAAGARYSIQTSSKQQGKASTPPVKKSFTPSKSPAPVSKKEPVKTPSPAPAAKISSRVNDNNDDDDWNEPELKERDFDQAPLKPNQSSYKPIGKIDLQKVIAEEKAKEDPRLVQKPTAAGSKIDPSSDIANLKNESKLKRDSEFNSFLGTTKPPSMTESSLKNDDDKVIKGFRNEKSPAQLWAERKAKQNSGNAETKAEAPKPEVPEDEPEGEPDVKDLKSKFEGLAASEKEEEEMENKFAPPPKKSEPTIISPKPFSKPQEPVKAEEAEQPKTDYKKIGNPLPGMHIEADNEEEPEENDDDWDDDEDEAAQPPLPSRNVASGAPVQKEEPEQEEIAPSLPSRNSIPAPKQEEAPEQAPEEEIEEEAEEAAPQLPSRSSAAPPPPPRRATPEKKPKENPWATAEYDYDAAEDNELTFVENDKIINIEFVDDDWWLGELEKDGSKGLFPSNYVSLGN	-0.8159	0.7969	-0.6649	0.8354	Neutral	–	–	–	–	–
ABP1 L17L (protein, UniProt P15891 2-592, looked up, synonymous codon change L17L in SH3) Actin-binding protein: ALEPIDYTTHSREIDAEYLKIVRGSDPDTTWLIISPNAKKEYEPESTGSSFHDFLQLFDETKVQYGLARVSPPGSDVEKIIIIGWCPDSAPLKTRASFAANFAAVANNLFKGYHVQVTARDEDDLDENELLMKISNAAGARYSIQTSSKQQGKASTPPVKKSFTPSKSPAPVSKKEPVKTPSPAPAAKISSRVNDNNDDDDWNEPELKERDFDQAPLKPNQSSYKPIGKIDLQKVIAEEKAKEDPRLVQKPTAAGSKIDPSSDIANLKNESKLKRDSEFNSFLGTTKPPSMTESSLKNDDDKVIKGFRNEKSPAQLWAERKAKQNSGNAETKAEAPKPEVPEDEPEGEPDVKDLKSKFEGLAASEKEEEEMENKFAPPPKKSEPTIISPKPFSKPQEPVKAEEAEQPKTDYKKIGNPLPGMHIEADNEEEPEENDDDWDDDEDEAAQPPLPSRNVASGAPVQKEEPEQEEIAPSLPSRNSIPAPKQEEAPEQAPEEEIEEEAEEAAPQLPSRSSAAPPPPPRRATPEKKPKENPWATAEYDYDAAEDNELTFVENDKIINIEFVDDDWWLGELEKDGSKGLFPSNYVSLGN	–	–	–	–	–	Neutral	-0.5458	1.067	-0.4377	1.063
ABP1 G57G (protein, UniProt P15891 2-592, looked up, synonymous G57G codon change in SH3 domain) Actin-binding protein: ALEPIDYTTHSREIDAEYLKIVRGSDPDTTWLIISPNAKKEYEPESTGSSFHDFLQLFDETKVQYGLARVSPPGSDVEKIIIIGWCPDSAPLKTRASFAANFAAVANNLFKGYHVQVTARDEDDLDENELLMKISNAAGARYSIQTSSKQQGKASTPPVKKSFTPSKSPAPVSKKEPVKTPSPAPAAKISSRVNDNNDDDDWNEPELKERDFDQAPLKPNQSSYKPIGKIDLQKVIAEEKAKEDPRLVQKPTAAGSKIDPSSDIANLKNESKLKRDSEFNSFLGTTKPPSMTESSLKNDDDKVIKGFRNEKSPAQLWAERKAKQNSGNAETKAEAPKPEVPEDEPEGEPDVKDLKSKFEGLAASEKEEEEMENKFAPPPKKSEPTIISPKPFSKPQEPVKAEEAEQPKTDYKKIGNPLPGMHIEADNEEEPEENDDDWDDDEDEAAQPPLPSRNVASGAPVQKEEPEQEEIAPSLPSRNSIPAPKQEEAPEQAPEEEIEEEAEEAAPQLPSRSSAAPPPPPRRATPEKKPKENPWATAEYDYDAAEDNELTFVENDKIINIEFVDDDWWLGELEKDGSKGLFPSNYVSLGN	-0.4468	1.166	-0.3559	1.1444	Neutral	–	–	–	–	–
ABP1 E16E (protein, UniProt P15891 2-592, looked up, synonymous codon change E16E) Actin-binding protein: ALEPIDYTTHSREIDAEYLKIVRGSDPDTTWLIISPNAKKEYEPESTGSSFHDFLQLFDETKVQYGLARVSPPGSDVEKIIIIGWCPDSAPLKTRASFAANFAAVANNLFKGYHVQVTARDEDDLDENELLMKISNAAGARYSIQTSSKQQGKASTPPVKKSFTPSKSPAPVSKKEPVKTPSPAPAAKISSRVNDNNDDDDWNEPELKERDFDQAPLKPNQSSYKPIGKIDLQKVIAEEKAKEDPRLVQKPTAAGSKIDPSSDIANLKNESKLKRDSEFNSFLGTTKPPSMTESSLKNDDDKVIKGFRNEKSPAQLWAERKAKQNSGNAETKAEAPKPEVPEDEPEGEPDVKDLKSKFEGLAASEKEEEEMENKFAPPPKKSEPTIISPKPFSKPQEPVKAEEAEQPKTDYKKIGNPLPGMHIEADNEEEPEENDDDWDDDEDEAAQPPLPSRNVASGAPVQKEEPEQEEIAPSLPSRNSIPAPKQEEAPEQAPEEEIEEEAEEAAPQLPSRSSAAPPPPPRRATPEKKPKENPWATAEYDYDAAEDNELTFVENDKIINIEFVDDDWWLGELEKDGSKGLFPSNYVSLGN	–	–	–	–	–	Neutral	0.3666	1.979	0.1832	1.684
ABP1 N15N (protein, UniProt P15891 2-592, looked up, synonymous codon change N15N) Actin-binding protein: ALEPIDYTTHSREIDAEYLKIVRGSDPDTTWLIISPNAKKEYEPESTGSSFHDFLQLFDETKVQYGLARVSPPGSDVEKIIIIGWCPDSAPLKTRASFAANFAAVANNLFKGYHVQVTARDEDDLDENELLMKISNAAGARYSIQTSSKQQGKASTPPVKKSFTPSKSPAPVSKKEPVKTPSPAPAAKISSRVNDNNDDDDWNEPELKERDFDQAPLKPNQSSYKPIGKIDLQKVIAEEKAKEDPRLVQKPTAAGSKIDPSSDIANLKNESKLKRDSEFNSFLGTTKPPSMTESSLKNDDDKVIKGFRNEKSPAQLWAERKAKQNSGNAETKAEAPKPEVPEDEPEGEPDVKDLKSKFEGLAASEKEEEEMENKFAPPPKKSEPTIISPKPFSKPQEPVKAEEAEQPKTDYKKIGNPLPGMHIEADNEEEPEENDDDWDDDEDEAAQPPLPSRNVASGAPVQKEEPEQEEIAPSLPSRNSIPAPKQEEAPEQAPEEEIEEEAEEAAPQLPSRSSAAPPPPPRRATPEKKPKENPWATAEYDYDAAEDNELTFVENDKIINIEFVDDDWWLGELEKDGSKGLFPSNYVSLGN	–	–	–	–	–	Neutral	-0.2193	1.393	0.1386	1.639
ABP1 S55S (protein, UniProt P15891 2-592, looked up, synonymous codon change S55S) Actin-binding protein: ALEPIDYTTHSREIDAEYLKIVRGSDPDTTWLIISPNAKKEYEPESTGSSFHDFLQLFDETKVQYGLARVSPPGSDVEKIIIIGWCPDSAPLKTRASFAANFAAVANNLFKGYHVQVTARDEDDLDENELLMKISNAAGARYSIQTSSKQQGKASTPPVKKSFTPSKSPAPVSKKEPVKTPSPAPAAKISSRVNDNNDDDDWNEPELKERDFDQAPLKPNQSSYKPIGKIDLQKVIAEEKAKEDPRLVQKPTAAGSKIDPSSDIANLKNESKLKRDSEFNSFLGTTKPPSMTESSLKNDDDKVIKGFRNEKSPAQLWAERKAKQNSGNAETKAEAPKPEVPEDEPEGEPDVKDLKSKFEGLAASEKEEEEMENKFAPPPKKSEPTIISPKPFSKPQEPVKAEEAEQPKTDYKKIGNPLPGMHIEADNEEEPEENDDDWDDDEDEAAQPPLPSRNVASGAPVQKEEPEQEEIAPSLPSRNSIPAPKQEEAPEQAPEEEIEEEAEEAAPQLPSRSSAAPPPPPRRATPEKKPKENPWATAEYDYDAAEDNELTFVENDKIINIEFVDDDWWLGELEKDGSKGLFPSNYVSLGN	-0.05585	1.557	0.2461	1.746	Neutral	–	–	–	–	–
